The text below walks through data of US20100233154A1, “TARGETED BINDING AGENTS DIRECTED TO HEPARANASE AND USES THEREOF 463” (MedImmune Limited, priority 2008, published 2010).

Experiment [1] concerns B16F10 AP3 murine melanoma cells. Description: FACS binding to cell surface heparanase, B16F10 AP3. The class given is cell-based. The following applies: 5 or 10 μg per ml, 2 hrs at 37° C. On the procedure: (§1) Although heparanase is found as a secreted protein, a proportion of heparanase is found in conjunction with cell surface heparan sulfate. The ability of anti-human heparanase antibodies to bind to cell surface heparanase was tested in a FACS assay. HT1080 human fibrosarcoma cells, HCT116 human colorectal tumour cells and B16F10 AP3 murine melanoma cells were each seeded into 6-well plates and cultured for 48 hrs prior to the addition of anti-heparanase antibody 10E9.1 or control IgG2 antibody (Sigma Cat. No. 1504-1MG). Antibodies were added to the cells to a final concentration of 5 or 10 μg per ml and incubated with the cells for 2 hrs at 37° C. The cells were then washed with phosphate buffered saline (PBS) and harvested by incubation with trypsin. The cells were pelleted by centrifugation and resuspended in 0.5 ml PBS, 0.1% BSA containing 1/200 dilution of AlexaFluor 488 anti-human IgG. The cells were incubated for 1 hr at room temperature, washed with PBS/BSA, resuspended in PBS and analysed by FACS. […] The differences likely reflect a lower affinity for murine heparanase in addition to any differences in absolute heparanase expression.

In experiment [2] the test system is HT1080 human fibrosarcoma cells. Description: FACS binding to cell surface heparanase, HT1080. It counts as cell-based. To be noted: 5 or 10 μg per ml, 2 hrs at 37° C. On the procedure: as §1
(In flow cytometry, cells or beads pass a laser one at a time.)

Experiment [3] has as its system MCF7-Hpa1#19 cells. Description: Accumulation of precursor heparanase in conditioned medium and cell lysates (Western blot). The class given is cell-based, human. To be noted: 25 μg per ml, 24 hrs. On the procedure:
MCF7-Hpa1#19 cells were cultured until confluent and then grown overnight (˜12 hrs) at 37° C. in serum free medium. Following overnight incubation, culture medium was replaced with serum free medium containing 25 μg per ml anti-heparanase monoclonal antibody 10E9.1 or a control IgG2 antibody (Sigma Cat. No. 1504-1MG) and incubated for a further 24 hrs at 37° C. Cell cultures were then treated for 2 hrs with PMA 0.1-10 μM, to stimulate heparanase expression (Sasaki N et al, J Immunol. 172: 3830, 2004). Conditioned medium from the cultures was harvested and concentrated 10-fold and protein lysates in RIPA buffer were prepared from the cells. Proteins from conditioned medium or cell lysates were separated on […] gels as described previously and heparanase was detected using an anti-heparanase polyclonal antibody (Biochain Cat. No. Z5010104).
Background: In western blotting, separated proteins are transferred to a membrane and probed.

Experiment [4] concerns precursor (65 kDa) and active (50 kDa) heparanase. Description: Immunoprecipitation and Western blotting of heparanase from cell lysates. To be noted: 10 μg antibody, 400 μg lysate, MCF7 and MDA MB231 parental and heparanase transfected cells. It counts as binding, human. The procedure:
Briefly, protein lysates (400 μg in RIPA lysis buffer—137 mM NaCl, 20 mM Tris pH7.4, 10% glycerol, 1% Triton, 0.5% Sodium deoxycholate, 0.1% SDS, 2 mM EDTA, 1 mM dithiothreitol, 4 mM pefabloc, 10 mM glycerol-2-phosphate, 5 mM NaF and protease inhibitor cocktail) from both parental and heparanase transfected cells were incubated with 10 μg IgG2 control or anti-heparanase (10E9.1) antibodies for 1 hour at 4° C. Following immunoprecipitation with protein G agarose beads and washing with RIPA buffer, samples were separated on 10% bis-tris gels and transferred to nitrocellulose for Western blotting. Heparanase was detected using an anti-heparanase polyclonal antibody (Biochain Cat. No. Z5010104), that recognises both precursor and active heparanase.

For experiment [5], the system named is MDA MB231-Hpa1#4 cells. Description: Heparanase expression in cells cultured with antibody (Western blot). It counts as cell-based, human. The following applies: 25 μg per ml antibody, 72 hrs, compared to untreated or IgG2 control. The procedure: MDA MB231-Hpa1#4 cells were cultured in the presence of 25 μg per ml anti-human heparanase antibody or control IgG2 antibody (Sigma Cat. No. 1504-1MG) for 72 hrs. Following the removal of culture medium, protein extracts were prepared from the cells in 100 μl RIPA buffer and separated on […] gels and transferred to nitrocellulose as described above. Western blots were probed with an anti-heparanase antibody that detected only pro-heparanase (SantaCruz Cat. No. SC25825).

Experiment [6] deals with cynomolgus heparanase. Description: Cross species capture ELISA, cynomolgus heparanase. To be noted: min 0.06, max 1.5 OD units. The class given is binding. The procedure:
Initially, cross species binding to human, murine and cynomolgus heparanase was determined in an ELISA assay in which heparanase was captured onto plates using a rabbit anti-heparanase antibody (Raybiotech, Cat. IP-14-155). Exhaustive supernatants were added to the plates at a final dilution of 1:5 and bound antibody detected with a rabbit anti-human IgG Fc.
For orientation: An ELISA detects its analyte on a solid surface through an enzyme-linked reagent.

B1: 10E9.1: fully human anti-heparanase monoclonal antibody, G2κ; VH SEQ ID NO 2, VL SEQ ID NO 4; ATCC PTA-9489 (antibody, listed as Homo Sapiens, V domains shown)
VH: QVQLVQSGAEVKKPGASVKVSCKVSGYSLTELSIHWVRQAPGKGLEWMGGFDPEDGEIIFAQKFQGRVTLTEDISLDTAYMEVSSLRSEDTAVYYCATEGHDSGDYVGYYYYGLDVWGQGTTVTVSS
VL: DIQMTQSPSSLSASVGDRVTITCRASQDIRNFLAWYQQKPGKLPKLLIYAASTLQSGVPSRFSGSGSGTDFTLTISSLQPEDVASYYCQSHNSVPFTFGPGTKVDIR
notes: fully human anti-heparanase monoclonal antibody, G2κ; ATCC PTA-9489
As for B1, the “Binding to cell surface by FACS” value in experiment [1] was “bind to the cell surface of B16F10 AP3 murine melanoma cells”. The “Binding to cells by FACS” value in experiment [2] was “bind extensively”. Further, the “Accumulation of precursor (65 kDa) heparanase in the culture medium” value in experiment [3] (compared to control IgG2) was “accumulation of precursor (65 kDa) heparanase in the culture medium”. Further, the “PMA-stimulated increase in intracellular heparanase” value in experiment [3] (then PMA 0.1-10 μM 2 hrs) is recorded as “appeared to be attenuated”. The “Immunoprecipitation of heparanase from cell lysates” value in experiment [4] was “immunoprecipitation of both precursor and active forms of heparanase”. In addition, in experiment [5], the “Inhibition of heparanase expression” value is reported as “significant inhibition of heparanase expression”. In addition, the “Binding to heparanase Cyno” value in experiment [6] stood at 1.4 OD units.
